These results are taken from patent publication US20260193363A1.

In assay [1] the target is EGFR overexpressed on cancer cell lines MDA-MB-468 and A431 (human) (UniProt P00533). The assay can be described thus: flow cytometry, antibodies added at 2 µg/ml, A431 cells. In general terms: A flow cytometer gives signals particle by particle.
Assay [2] addresses wtEGFR at physiological levels on WI-38 cells (human) (UniProt P00533). The assay can be described thus: flow cytometry, antibodies added at 2 µg/ml, WI-38 cells.
Assay [3] addresses wild-type EGFR on F98EGFR cells (rat glioma F98 transfected with full-length EGFR) (UniProt P00533). The assay can be described thus: flow cytometry, antibodies added at 2 µg/ml, F98-EGFR cells.
The target in assay [4] is EGFR overexpressed on cancer cell lines MDA-MB-468 and A431 (human) (UniProt P00533). The experiment in a line: flow cytometry, antibodies added at 2 µg/ml, MDA-MB-468 cells.
For assay [5], the target named is EGFRvIII on F98npEGFRvIII cells (rat glioma F98 transfected with nonphosphorylated EGFRvIII). The assay can be described thus: flow cytometry, antibodies added at 2 µg/ml, F98-npEGFRvIII cells.
Assay [6] deals with EGFR and EGFRvIII on GBM39 cells (patient derived xenograft glioblastoma line). The experiment in a line: flow cytometry on GBM39 cells, antibody at 2 µg/ml.
Assay [7] shares this target. The experiment in a line: flow cytometry on GBM39 cells, antibody at 20 µg/ml.
The target of assay [8] is wtEGFR at physiological levels on WI-38 cells (human) (UniProt P00533). The experiment in a line: flow cytometry on WI-38 cells, antibody at 2 µg/ml.
In assay [9] the target is EGFR and EGFRvIII on GBM39 cells (patient derived xenograft glioblastoma line). The experiment in a line: flow cytometry on GBM39 cells, antibody at 0.2 µg/ml.
In assay [10] the target is wild-type EGFR on F98EGFR cells (rat glioma F98 transfected with full-length EGFR) (UniProt P00533). The assay can be described thus: flow cytometry on F98EGFR cells, antibody at 2 µg/ml.
Assay [11] deals with EGFRvIII on DKMG-EGFRvIII cells (human glioblastoma line DKMG transduced with EGFRvIII). The experiment in a line: flow cytometry on DKMG-EGFRvIII cells, antibody at 1 µg/ml.
For assay [12] the target is unchanged. The assay can be described thus: flow cytometry on DKMG-EGFRvIII cells, antibody at 10 µg/ml.
The target is the same in assay [13]. The assay can be described thus: flow cytometry on DKMG-EGFRvIII cells, antibody at 0.1 µg/ml.

As to IgG1 Iso Con (antibody), the Median : PE-A is 34.3 in assay [1]; 48 in assay [2]; 32.6 in assay [3]; 34.9 in assay [4]; 26.2 in assay [5].
In the same order, the values of IgG2 Iso Con (antibody) are 31.2, 47.6, 33.5, 34.1 and 26.9.
monoclonal antibody ma528: the median fluorescent intensity came to 29800 in assay [6]; 30300 in assay [7]; 12700 in assay [9]; 14300 in assay [11]; 13500 in [12]; 12900 in assay [13]. In addition, the GeoMean in assay [8] was 2450; in [10] it was 3700. In addition, the Median : PE-A in assay [1] came out at 10700; in [2], 2720; in assay [3], 4040; in assay [4] it was 6860; in assay [5] it was 4470.
